According to the supplement of paper PMC9170038:

Test system: MS2 coat protein
Experiment: apparent KD of MS2 coat protein; designed switch direction (-1 OFF switch, 1 ON switch): 1; higher = weaker reporter binding
How it was run: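 Apparent KD, taken as the median over clusters for each design, was obtained by curve-fitting normalised cluster fluorescence. Designed RNA switches had been transcribed on Illumina chips by stalled E. coli RNA polymerase and titrated with SNAP-549-labelled MS2 coat protein, doubling from 0.7 or 1.5 nM to 3 µM.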

[1] = input ligand: microRNA oligo, concentration not stated
[2] = Eterna round: R95, input ligand: FMN 200 uM
[3] = Eterna round: R95, input ligand: microRNA oligo, concentration not stated
[4] = Eterna round: R95, input ligand: none

Sequence	apparent KD of MS2 coat protein (input ligand: FMN 200 uM) [µM]	apparent KD of MS2 coat protein [1] [µM]	apparent KD of MS2 coat protein (input ligand: none) [µM]	apparent KD of MS2 coat protein [2] [µM]	apparent KD of MS2 coat protein [3] [µM]	apparent KD of MS2 coat protein [4] [µM]
CGUUGUUCCUGAGGAUAUCAGUUGUUUGCAUUAUGAGAAGGCAGUACAUGAGGAUCACCCAUGUUGGGAUUUGAUAGAAUGACG [JR_SSNG1_Sub008] (Eterna round: R96, puzzle: Same State NG 1)	0.221	0.113	0.226	–	–	–
CGUAGGUAGCUGGAGGAUAUUCGAGUGGUAACAUGAGGAUCACCCAUGUGGAGUUAGUUACAUGAGGAGAAGGCUAGCUGCCUGC [JL-ss2-3.17 JL mod] (puzzle: Same State 2)	–	–	–	0.0367	0.061	0.0745
AUUUAACAAGCUUUUUGCUCGUCUUAUAAACAUGAGGAUCACCCAUGUAAUAGCGUGAGAGUAAAUAAAUUAAUAAU [JMF 97] (puzzle: Sensor for hsa-mir-208a)	–	–	–	0.0144	0.0461	0.0122
AAGGAAUGAGCGUAGGAUAUAGGAGAAGUGACAUGAGGAUCACCCAUGUAAAAGGAGGGAUGAGACUAGAAGGACGAGGUAGGAG [JR_SS2_Sub058] (puzzle: Same State 2)	–	–	–	0.0579	0.0533	0.0818
AGGUAACAUGAGGAUCACCCAUGUAAGGUGAACGUAGGAUAUCGAGGAGGUAGAGUAGGUCGAGAAGGACGAGAAG [JR_SS1_Sub094] (puzzle: Same State 1)	–	–	–	0.139	0.1	0.127
UUGCGGGAUUGAGGAUAUUGAGUACAUAUGUUUAACAUGAGGAUCACCCAUGUGGGUUGCGGUAUCGAGAAGGUAACUUACUAC [salish99_SSNG2_r04_805] (Eterna round: R96, puzzle: Same State NG 2)	–	0.0755	–	–	–	–
UAGAAACAUGAGGAUCACCCAUGUGUCAGAGACAUAGGAUAUCGUAACCAGCGCCGGAUACGAGAAGGGUGGUAAA [Enraxe] (puzzle: Same State 1)	–	–	–	0.156	0.0385	0.0513
UUAAAACAUGAGGAUCACCCAUGUAAUAAUAUGGGAGGAUAUCAGAUUUAAUUUAAUUUAUGAGAAGGCCUAAAUG [Mat - Same State 1 - Mod of Eli - D60] (puzzle: Same State 1)	–	–	–	0.0654	0.407	1.15
GGUCGGUCCAAACAUGAGGAUCACCCAUGUCCGGAAACGGCAUAGGAUAUCUGUCCGAAAAGGUCAGAGAAGGGUGAACCGACC [Fiskers NG3ss - 71] (Eterna round: R96, puzzle: Same State NG 3)	0.795	0.741	0.149	–	–	–
UGGCUCAGACGAGGAUAUAUGUCUCGAGCUUCGGCUCGAGACAUGAGGAUCACCCAUGUAAUAACAUAGAAGGCGUCUGAGCCU [SSNG2/1-A3] (Eterna round: R96, puzzle: Same State NG 2)	0.0126	0.029	0.0343	–	–	–
UGAGCCGGCACUGAGGAUAUUCAUAUUAAAACAUGAGGAUCACCCAUGUAGGCCAGAAGGCCUUGGGAGAAGGCAGGUCGGCUCU [Mat - Same State 2 - Mod of UCT - D60] (puzzle: Same State 2)	–	–	–	0.0226	0.185	0.334
AACAAUCUAUCUCAGGAUAUCAUGUCAAAGACAUGAGGAUCACCCAUGUACCAGGAAACUGGUUAUGAGAAGGGAGAUAGAUUGU [Mat - Same State 2 - Mod - D23] (puzzle: Same State 2)	–	–	–	0.157	0.0682	0.268
